Laboratory results from patent publication US20250250357A1 (NANJING ZAIMING PHARMACEUTICAL, published 2025).
Changes are numbered by the printed parent chain. Like-named read-outs stand apart in the source and are kept apart here. Values belong to the binder of their own block, whether it stands above or below them.

How the values were obtained:
[1] = target: T1, human MSLN on OVCAR3 tumor cells (human, UniProt Q13421 296-598); test: FACS, OVCAR3 cells
T1 construct: whole, on cells; also called human MSLN protein
T1 sequence (Q13421 other isoform, or with tags, fused parts or gaps): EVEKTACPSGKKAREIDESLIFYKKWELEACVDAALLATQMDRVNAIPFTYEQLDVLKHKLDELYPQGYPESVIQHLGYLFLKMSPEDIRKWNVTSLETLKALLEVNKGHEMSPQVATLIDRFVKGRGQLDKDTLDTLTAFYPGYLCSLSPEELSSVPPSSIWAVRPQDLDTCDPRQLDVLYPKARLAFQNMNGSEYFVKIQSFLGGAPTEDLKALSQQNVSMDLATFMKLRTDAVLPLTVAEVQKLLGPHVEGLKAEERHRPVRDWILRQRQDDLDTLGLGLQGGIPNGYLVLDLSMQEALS

[2] = target: T2, human MSLN-R3 on HEK293T-hMSLN-R3 recombinant cells (human, UniProt Q13421 487-606); test: FACS, HEK293T-hMSLN-R3 cells
T2 construct: the C-terminal limit is uncertain; also called human MSLN-R3 membrane protein
T2 sequence (Q13421 495-614): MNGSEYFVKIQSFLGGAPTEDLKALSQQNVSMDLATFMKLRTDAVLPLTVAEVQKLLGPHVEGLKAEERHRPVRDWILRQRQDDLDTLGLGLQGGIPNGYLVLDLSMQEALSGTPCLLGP

[3] = target: T3, monkey MSLN on HEK293T-monkey MSLN recombinant cells (monkey); test: FACS, HEK293T-monkey MSLN cells
T3 construct: Full-length precursor as transfected; processing on the cell is not described; also called HEK293-monkey MSLN
T3 chain: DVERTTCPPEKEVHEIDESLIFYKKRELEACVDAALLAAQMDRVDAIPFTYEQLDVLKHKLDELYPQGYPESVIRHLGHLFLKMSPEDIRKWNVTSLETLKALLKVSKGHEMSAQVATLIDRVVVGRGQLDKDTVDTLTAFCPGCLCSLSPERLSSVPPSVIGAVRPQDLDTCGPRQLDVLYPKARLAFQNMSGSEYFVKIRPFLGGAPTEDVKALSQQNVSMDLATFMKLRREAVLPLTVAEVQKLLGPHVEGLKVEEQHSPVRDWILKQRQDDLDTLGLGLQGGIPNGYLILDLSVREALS

[4] = target: T4, human MSLN-R3 protein (Met487-Ser606 of NCBI AAH09272.1) expressed on HEK293T-hMSLN-R3 cells (human, UniProt Q13421 487-606); test: FACS on HEK293T-hMSLN-R3 cells;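 also: flow cytometry binding of test chimeric antibodies to cells after 2 h incubation on ice, with values derived from the mean fluorescence intensity of the cells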
T4 construct: also called Region3
T4 sequence (Q13421 495-614): as the sequence (Q13421 495-614) above

[5] = target: T5, monkey MSLN full-length protein (NCBI: XP_028696439.1) expressed on HEK293T-monkey MSLN cells (monkey); test: FACS on HEK293T-monkey MSLN cells;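 also: flow cytometry binding of chimeric antibodies to the cells, with a 2 h incubation on ice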
T5 construct: Whole encoded precursor
T5 chain: T3 chain

[6] = target: T6, human MSLN protein endogenously expressed on OVCAR3 tumor cells (human, UniProt Q13421 296-598); test: FACS on OVCAR3 cells
T6 construct: whole, on cells; Endogenous target on OVCAR3 cells; kept apart from the recombinant full-length construct; also called mesothelin

[7] = target: T7, human MSLN protein endogenously expressed on OVCAR3 tumor cells (human, UniProt Q13421 296-598); test: FACS on OVCAR3 cells
T7 construct: whole, on cells; endogenous expression on a tumor cell line; also called human mesothelin

[8] = target: T8, human MSLN-R3 protein expressed on HEK293T cells (HEK293T-hMSLN-R3) (human, UniProt Q13421 487-606); test: FACS on HEK293T-hMSLN-R3 cells;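 also: chimeric antibodies incubated with cells on ice for 2 h, binding read by flow cytometry as mean fluorescence intensity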
T8 construct: C-terminal limit uncertain
T8 sequence (Q13421 495-614): as the sequence (Q13421 495-614) above

EC50 [1]: 0.4 nM
Maximum_MFI [1]: 1820 MFI
EC50 [2]: 1.72 nM
Maximum_MFI [2]: 1750 MFI
EC50 [3]: 6.05 nM
Maximum_MFI [3]: 6550 MFI
B1: F7.44.20-H1 (scFv, not shown: small tags and cut ends)
scFv: EVQLVQSGAEVKKPGASVKVSCKASGYTFTDYNMDWVRQAPGQGLEWMGDINPSTGGTIYNQKFNGRVTMTEDKSTSTVYMELSSLRSEDTAVYYCARRRIGTGYFDVWGQGTTVTVSSGGGGSGGGGSGGGGSEIVLTQSPDFQSVTPKEKVTITCSASSSVISSYLSWYQQKPDQSPKLLIYRTSNLASGVPSRFSGSGSGTDFTLTINSLEAEDAATYYCHQWSSFPYTFGGGTKVEIK
notes: also called S009-F7.44.20 humanized antibody VH1 + VL1

EC50 [1]: 1.6 nM
Maximum_MFI [1]: 1830 MFI
EC50 [2]: 3.44 nM
Maximum_MFI [2]: 1540 MFI
EC50 [3]: 15 nM
Maximum_MFI [3]: 6020 MFI
B2: F7.44.20-H6 (scFv, not shown: small tags and cut ends)
scFv: B1 scFv with N65Q, F206Y
notes: also called S009-F7.44.20 humanized antibody VH1a + VL2

EC50 [1]: 0.99 nM
Maximum_MFI [1]: 1820 MFI
EC50 [2]: 1.71 nM
Maximum_MFI [2]: 1690 MFI
EC50 [3]: 5.5 nM
Maximum_MFI [3]: 6950 MFI
B3: F7.44.20-H2 (scFv, not shown: small tags and cut ends)
scFv: B1 scFv with F206Y
notes: also called S009-F7.44.20 humanized antibody VH1 + VL2

EC50 [1]: 1.21 nM
Maximum_MFI [1]: 2320 MFI
EC50 [2]: 0.88 nM
Maximum_MFI [2]: 1470 MFI
EC50 [3]: 4.25 nM
Maximum_MFI [3]: 9020 MFI
B4: F7.44.20-H10 (scFv, not shown: small tags and cut ends)
scFv: B1 scFv with T76A, F206Y
notes: also called S009-F7.44.20 humanized antibody VH2 + VL2

EC50 [4]: 0.14 nM
Maximum mean fluorescence intensity [4]: 6590
EC50 [5]: 12.5 nM
Maximum mean fluorescence intensity [5]: 9230
EC50 [6]: 0.36 nM
Maximum mean fluorescence intensity [6]: 16600
B5: S009-F7.69.8 (antibody, human IgG1, kappa, V domains shown)
VH: EVHLQQSGPELVKPGASVRIPCKASGYTFTDYNMDWVKQSHGKSLEWIGDINPDNGGTIYTQKFKGKATLTVDKSSSTAYMELRSLTSEDTAVYYCARRLHYYGSSGLDYWGQGTTLTVSS
VL: DIQMTQSPASLSAYVGETVTITCRASGNIHNYLAWYQQKQGKSPQLLVYNAKTLADGVPSRFSGSGSGTQYSLKINSLQPEDFGSYYCQHFWSTVWTFGGGTKLEIKR
notes: human-murine chimeric antibody, human IgG1/kappa constant regions

EC50 [7]: 0.86 nM
Maximum mean fluorescence intensity [7]: 5380
EC50 [8]: 0.53 nM
Maximum mean fluorescence intensity [8]: 128000
B6: S009-F8-9.16 (antibody, human IgG1, kappa, V domains shown)
VH: EVHLQQSGPVLVKPGASVKMSCKASGYTFTDYFMNWVKQSHGKSLEWIGVINPHNGYVNYNQKFQGRATLTVDKSSSTVYMELNSLTSEDSAVYHCARSAESAWFAYWGQRTLVTVSA
VL: DVLMTQTPLSLPVSLGDQVSISCRSSQSIVHVKGNTYLEWYLQKPGQSPELLIYKVSNRFSGVPDRFSGGGSGTDFTLKISRVEPEDLGVYYCFQGSHLPYTFGGGTKLEIKR
notes: as for B5

EC50 [4]: 0.38 nM
Maximum mean fluorescence intensity [4]: 5900
Maximum mean fluorescence intensity [5]: 60
binding result [5]: no binding
EC50 [6]: 0.87 nM
Maximum mean fluorescence intensity [6]: 21900
B7: S009-F7.66.12 (antibody, human IgG1, kappa, V domains shown)
VH: QIPLQQSGPELVKPGASVRISCKASDYAFSSSWMNWVKQRPEKGLEWIGRIFVESGNTHYNDKFNGKATLTADKSSRTAYIQLSSLTSEDSAVYFCTRENIFYHGHSSWFAYWGQGTLVTVSA
VL: DIVLTQSPASLVVSLGQRATISCRAGESVDDFGISYVHWYQQKPGQPPKLLIYRAANLESGIPARFSGSGSRTDFTLTINPVETDDVAIYYCQQNNKDPFTFGSGTKLEIKR
notes: as for B5

EC50 [4]: 0.14 nM
Maximum mean fluorescence intensity [4]: 6930
EC50 [5]: 0.36 nM
Maximum mean fluorescence intensity [5]: 59300
EC50 [6]: 0.37 nM
Maximum mean fluorescence intensity [6]: 29100
B8: S009-F7.67.12 (antibody, human IgG1, kappa, V domains shown)
VH: QVQLQQPGTELVKPGASVRLSCRASGYSFSSYWMHWVKQRPGQGLEWLGNINPTTGDINYNEKFRNRATLAVDKSSTTAYLQLTSLTSEDSAVYFCVRHDGFLWGQGTTLTVSS
VL: DIQMTQSPASLSASVGETVTITCRASENIYSYLAWYQQKQGKSPQLLVYYAKTLAEGVSSRFSGSGSGTQFSLKINSLQPEDFGTYYCQHQFGTPRTFGGGTKLEIRR
notes: as for B5
